T1: human CD19 on Raji cells (human, UniProt P15391 20-556)
T1 construct: whole, on cells
T1 sequence (looked up): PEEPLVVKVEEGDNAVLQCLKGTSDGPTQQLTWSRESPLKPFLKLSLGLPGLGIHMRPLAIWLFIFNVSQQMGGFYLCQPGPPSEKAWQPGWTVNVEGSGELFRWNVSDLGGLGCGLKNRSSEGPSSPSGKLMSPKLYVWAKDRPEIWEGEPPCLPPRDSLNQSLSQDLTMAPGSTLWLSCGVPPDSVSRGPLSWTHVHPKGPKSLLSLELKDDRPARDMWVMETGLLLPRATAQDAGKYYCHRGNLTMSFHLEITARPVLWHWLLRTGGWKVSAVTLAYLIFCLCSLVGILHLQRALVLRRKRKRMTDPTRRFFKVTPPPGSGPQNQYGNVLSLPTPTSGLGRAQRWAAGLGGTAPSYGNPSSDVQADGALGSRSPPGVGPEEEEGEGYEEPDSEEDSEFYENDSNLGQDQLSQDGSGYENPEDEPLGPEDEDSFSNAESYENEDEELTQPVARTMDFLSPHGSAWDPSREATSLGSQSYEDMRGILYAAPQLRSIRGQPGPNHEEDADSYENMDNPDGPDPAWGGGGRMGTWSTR

T2: cynomolgus monkey CD19 on peripheral blood B cells (cynomolgus monkey (Macaca fascicularis), UniProt A0A2K5W8L9 20-557)
T2 construct: whole, on cells; also called cynomolgus monkey B cells
T2 sequence: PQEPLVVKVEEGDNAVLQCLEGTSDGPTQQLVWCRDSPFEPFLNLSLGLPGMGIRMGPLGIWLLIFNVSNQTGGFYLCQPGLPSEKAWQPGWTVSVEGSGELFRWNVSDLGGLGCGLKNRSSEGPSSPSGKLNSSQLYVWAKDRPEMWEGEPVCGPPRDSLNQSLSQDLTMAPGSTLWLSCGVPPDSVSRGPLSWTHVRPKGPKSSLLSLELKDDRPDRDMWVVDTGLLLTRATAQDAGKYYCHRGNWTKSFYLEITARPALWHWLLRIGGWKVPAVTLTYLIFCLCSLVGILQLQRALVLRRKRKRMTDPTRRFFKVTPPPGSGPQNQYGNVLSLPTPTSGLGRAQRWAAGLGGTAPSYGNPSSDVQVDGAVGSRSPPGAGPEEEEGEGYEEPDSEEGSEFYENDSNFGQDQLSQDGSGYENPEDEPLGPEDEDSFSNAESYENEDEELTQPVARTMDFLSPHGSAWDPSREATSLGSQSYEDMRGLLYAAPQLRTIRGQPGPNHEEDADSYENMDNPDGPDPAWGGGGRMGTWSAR

T3: human CD19 on CHO-K1-human CD19 cells (human, UniProt P15391 20-556)
T3 construct: whole, on cells; also called CHO-K1-human CD19-2C8
T3 sequence (looked up): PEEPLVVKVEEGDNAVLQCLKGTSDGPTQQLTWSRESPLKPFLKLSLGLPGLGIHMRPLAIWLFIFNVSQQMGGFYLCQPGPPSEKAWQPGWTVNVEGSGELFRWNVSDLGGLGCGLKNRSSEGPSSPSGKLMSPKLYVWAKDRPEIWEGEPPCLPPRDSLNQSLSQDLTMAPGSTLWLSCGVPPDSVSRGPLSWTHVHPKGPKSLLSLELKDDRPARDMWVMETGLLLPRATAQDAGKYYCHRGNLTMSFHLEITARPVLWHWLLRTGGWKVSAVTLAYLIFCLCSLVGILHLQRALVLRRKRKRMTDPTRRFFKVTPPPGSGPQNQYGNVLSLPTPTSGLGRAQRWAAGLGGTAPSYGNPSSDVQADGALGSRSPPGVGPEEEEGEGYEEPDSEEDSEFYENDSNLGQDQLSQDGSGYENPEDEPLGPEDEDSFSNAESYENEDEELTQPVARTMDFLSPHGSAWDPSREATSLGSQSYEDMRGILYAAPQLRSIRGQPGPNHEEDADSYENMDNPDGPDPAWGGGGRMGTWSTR

B1: F3.81.2 (antibody, human IgG1, V domains shown)
VH: QVQLQQPGAELVMPGASVKLSCKASAYTFTNYWMHWVKQRPGHGLEWIGEIDPSDSYTDYNQNFKAKATLTVDKSSSTAYMQLSSLTSEDSAVYYCARLMGRYFDVWGTGTTVTVSS
VL: DIVMTQSHKFMSTSVGDRVSITCKASQDVSAAVAWYQQKPGQSPKLLINSASYRYTGVPDRFTGSGSGTDFTFTISSVQAEDLAVYYCQQHYSTPLTFGAGTKLELR
notes: human-murine chimeric antibody, human IgG1
B2: F3.126.15 (antibody, human IgG1, V domains shown)
VH: QVQLQQPGAELVMPGASVKLSCKASGYTFTSYWMHWVKQRPGQGLEWIGEIDPSDSYTTYNQNFKGKATLTVDISTSTAYIQLSNLTSEDSAVYYCARLTGNYIHYWGQGTTLTVSS
VL: DIVMTQSHKFMSTSVGDRVSITCKASQDVSPAVAWYQQRPGQCPKLLIFSSSYRSTGVPDRFTGSGSGTDFTFTISSVQAEDLAVYYCQQHYSLPLTFGAGTKLELK
notes: as for B1
B3: F3.13.2 (antibody, human IgG1, V domains shown)
VH: DVQLQESGPGLMKPSQSLSLTCSVTGYSITSGYYWNWIRQFPGNKLEWMGYISYDGSNNYNPSLKNRFSITRDTSKNQFFLKLNSVTTEDTATYYCARRKLTGGPYFDYWGQGTTLTVSS
VL: DIVLTQSPASLAVTLGQRATISCRASESVSFHGFHIMHWYQQKPGQPPKLLIYAASHLVSGVPDRFSGSGSETDFTLNIHPVEEEDAAAYFCQQSVEDPWTFGGGTKLEIK
notes: as for B1
B4: F3.109.1 (antibody, human IgG1, V domains shown)
VH: EVQLQQSGAELVRPGSSVKMSCKTSGYTFTSYGINWVKQRPGQGLEWIGYIYIGNDYTEFNEKFKGKATLTSDTSSSTAYMQLSSLTSEDSAIYFCARFYSNSDPMDYWGHGTSVTVSS
VL: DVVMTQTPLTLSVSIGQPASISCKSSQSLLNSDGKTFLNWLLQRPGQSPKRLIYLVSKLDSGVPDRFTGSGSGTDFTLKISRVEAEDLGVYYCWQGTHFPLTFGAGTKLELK
notes: as for B1
B5: F3.64.4 (antibody, human IgG1, V domains shown)
VH: EVQLQQSGPELVKPGASVKISCKASGYTFTDYHINWVKQSHGKSPEWIGDINPNNGGTTYNQKFKDKATLTVDKSSSTAFMELRSLTSEDSAVYYCARFITTVVAWYFDVWGTGTTVTVSS
VL: DIQMTQSPASLSVSVGETVTITCRASENIYSNLAWYQQKQGKSPQLLVYAATNLADGVPSRFSGSGSGTQYSLKINSLQSEDFGNYYCQRFWDTPRTFGGGTKLEIK
notes: as for B1
B6: F3.114.12 (antibody, human IgG1, V domains shown)
VH: DVQLQESGPGLVKPSQSLSLTCSVTGYSITSGYDWNWIRQFPGNKLEWMGYISYDGKNNYNPSLRNRISITRDTSKNQFFLKLNSVTTEDTATYYCARRDLRGYFDVWGTGTTVTVSS
VL: DIVLTQSPATLSVTPGDRVSLSCRASQSISNYLHWYQQKSHESPRLLIKYASLSISGIPSRFSGSGSGTDFTLSINSVETEDFGVYFCQQSNSWPLTFGAGTKLELK
notes: as for B1
B7: F3.83.9 (antibody, human IgG1, V domains shown)
VH: DVQLQESGPGLVKPSQSLSLTCSVTGYSITSGYYWNWIRQFPGNKLEWMGYISYDGGNNYNPSLKNRISITRDTSKNQFFLKLNSVTTEDTATYFCAREDYSNWYFDVWGTGTTVTVSS
VL: DIVLTQSPASLAVSLGQRATISCRASQSVSKSSYSYMHWYQQKPGQSPKLLIKYASILKSGVPARFSGSGSGTDFTLNIHPVEEEDTATYYCQHSWEIPWTFGGGTKLEIK
notes: as for B1
B8: F3.74.4 (antibody, human IgG1, V domains shown)
VH: QVQLQQSGAELVRPGASVTLSCKASGYTFTDYEMHWVKQTPVHGLEWIGGIAPETGLTTYNQKFEDKAILTADKSSRTAYMELRSLTSEDSAVYFCNPNNYGLWGTGTTVTVSS
VL: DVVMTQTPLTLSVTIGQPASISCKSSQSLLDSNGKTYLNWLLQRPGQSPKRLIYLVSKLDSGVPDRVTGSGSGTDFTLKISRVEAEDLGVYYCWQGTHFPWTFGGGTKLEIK
notes: as for B1
B9: F3.113.16 (antibody, human IgG1, V domains shown)
VH: QVQLQQPGAELVKPGASVKLSCKASGYTFTNYWMQWVKQRPGQGLEWIGEIDPSDSYINYNQKFKGKATLTADTSSSTAYMQLSSLTYEDSAVYYCARPVTVPWYFDVWGTGTTVTVSS
VL: EIVLTQSPTTMAASPGEKITITCSATSSISSNYLHWYQQKPGFSPKLLIYRTSNLASGVPARFSGSGSGTSYSLTIGTMEAEDVATYYCQQGSAIPRIFTFGSGTKLEIK
notes: as for B1
B10: F3.121.4 (antibody, human IgG1, V domains shown)
VH: QVQLQQPGAELVVPGTSVKLSCKASGYTFTNYWMHWVKQRPGQGLEWIGEIDPSDNYANYNQEFQGKATLTVDKSSSTAYMQLSSLTSDDSAVYYCARHDGYFGALDYWGQGTSVTVSS
VL: EIVLTQSPTTMAASPGEKITITCSASSSISSNYLHWYQQKPGFSPKFLIYRTSNLASGVPARFSGSGSGTSYSLTIGTMEAEDVATYYCQQASSIPRMFTFGSGTKLEIK
notes: as for B1

Assays:
human CD19 on Raji cells = molecular target: T1, human CD19 on Raji cells; assay: FACS on Raji cells
[1] = molecular target: T4, monkey CD19 on HEK293T-monkey CD19 cells (monkey); assay: FACS on HEK293T-monkey CD19 cells
T4 construct: whole, on cells
Method in brief: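 Antibody binding was read as MFI by flow cytometry and EC50 was taken from curve fitting. Before that, cells at 2×10⁶ cells/ml in PBS with 2% (w/w) BSA were exposed to samples for 2 h on ice and washed. Parental HEK293T cells were tested the same way.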

[2] = molecular target: T2, cynomolgus monkey CD19 on peripheral …; assay: FACS, cynomolgus PBMC, CD20+ B cells
Protocol: The monkey peripheral blood mononuclear cells were extracted from fresh cynomolgus monkey peripheral blood (purchased from Shanghai Medicilon Inc.) according to the instructions of Ficoll-Paque Plus (purchased from GE Healthcae, catalog number: 171440-02). After the cell suspension was centrifuged, the cells were resuspended in PBS containing 1% BSA, and then the cells were counted. […] The mixture was incubated for 1 h at room temperature. After washing the cells three times, APC-labeled secondary antibody anti-human IgG Fc (catalog number: 409306, purchased from Biolegend) was added. After incubation at room temperature in the dark for 30 minutes, the cells were washed 5 times, gently resuspended with PBS containing 1% BSA, and detected and analyzed by FACS (FACS Canto™, purchased from BD Company), in which CD20 was used as a marker of B cells to gate the CD20-positive B cell population, the proportion of the chimeric antibody-labeled positive cells was analyzed, and the proportion of the chimeric antibody positive cell population to B cell population was calculated after treatments with the chimeric antibodies at the concentrations of 100 nM, 10 nM and 1 nM, respectively.

[3] = molecular target: T3, human CD19 on CHO-K1-human CD19 cells; assay: FACS on CHO-K1-human CD19 cells

Binder | EC50 (human CD19 on Raji cells) | Maximum mean fluorescence intensity (human CD19 on Raji cells) | EC50 [1] | Maximum mean fluorescence intensity [1] | Proportion of chimeric antibody positive cells to B cells (%) at 1 nM [2] | Proportion of chimeric antibody positive cells to B cells (%) at 10 nM [2] | Proportion of chimeric antibody positive cells to B cells (%) at 100 nM [2] | EC50 [3] | Maximum mean fluorescence intensity [3]
B1 | 0.68 nM | 31300 | 3.44 nM | 153000 | 7% | 16% | 38% | 1.27 nM | 59600
B2 | 1.18 nM | 30300 | 5.57 nM | 175000 | 16% | 27% | 49% | 2.47 nM | 56700
B3 | 5.24 nM | 27100 | 2.64 nM | 66400 | 1% | 3% | 8% | 2.46 nM | 43900
B4 | 0.44 nM | 29900 |  | 148 | 1% | 1% | 1% | 0.57 nM | 3980
B5 | 0.43 nM | 35800 | 3.99 nM | 98400 | 1% | 2% | 9% | 0.61 nM | 63700
B6 | 3.34 nM | 28700 | 1.56 nM | 210000 | 40% | 90% | 99% | 2.32 nM | 50400
B7 | 1.75 nM | 29700 | 1.12 nM | 198000 | 58% | 97% | 99% | 1.34 nM | 52200
B8 | 3.41 nM | 30100 |  | 121 | 1% | 1% | 1% | 4.55 nM | 3850
B9 | 0.96 nM | 28800 |  | 176 | 1% | 1% | 6% | 0.39 nM | 34100
B10 | 0.31 nM | 32900 |  | 80 | 1% | 2% | 2% | 0.3 nM | 53700
